Several values for one entry are separate records, joined by “and”; a condition that tells them apart may be missing. Equal values may be shown once.
Tested on: subjects with chronic systolic heart failure
Assay: Phase III clinical trial of recombinant human neuregulin for injection on cardiac function (LVESVI/LVEDVI), with enriched-subgroup analyses
Type: in vivo
Settings: for average improvement in LVEDVI from baseline, enriched population compared with overall (general) population / average improvement in LVESVI from baseline, enriched population compared with overall (general) population: Day 30 after the administration
Method: Example 1: A Multi-Center, Randomized, Double-Blind, Placebo-Controlled and Standard Treatment-Based Phase III Clinical Trial to Evaluate the Effect of Recombinant Human Neuregulin for Injection on Cardiac Function of Subjects with Chronic Systolic Heart Failure
In this example, a multi-center, randomized, double-blind, placebo-controlled study was conducted based on standard treatment to evaluate the effects of recombinant human neuregulin for injection on the cardiac function of male patients with NT-proBNP ≤1700 pg/ml and female patients with NT-proBNP ≤4000 pg/ml, and to confirm its efficacy and safety.
A multicenter, randomized, double-blind, placebo-controlled study was conducted based on standard treatment.
Experimental group: recombinant human neuregulin for injection+standard basic treatment drugs (β receptor blocker, ACEI/ARB/ARNI, aldosterone receptor antagonist, etc.).
• 2.1 Age is 18-75 years old, regardless of gender; • 2.2 heart failure has been definitely diagnosed for 3 months or more, and the condition is stable at present, with NYHA II-III grade and left ventricular ejection fraction (LVEF)≤40%; • 2.3 male Nt-proBNP ≤1700 pg/ml, female Nt-proBNP ≤4000 pg/ml; • 2.4 After receiving standard basic treatment drugs for heart failure for 3 months, the target dose or maximum tolerated dose has been reached for more than 1 month, or the dose has not been changed within 1 month; • 2.5 Understand and sign the informed consent form.
Specification: Neucardin, 61 amino acids constitute EGF-like functional domain of Neuegulin-1β2 isomer, with molecular weight of 7054 Dal (1 μg=0.14 nmol); 250 μg/piece. • Dosage Form: Powder Injection • Administration Route: Intravenous Drip • Appearance: freeze-dried block or powder.
5. Data Collection: Evaluating the Effectiveness and Safety During the Screening Period, 30 Days and 90 Days after Administration.
This example was carried out in many clinical research centers in China at the same time. 154 cases were actually enrolled, 78 cases in the Neuregulin experimental group and 76 cases in the placebo group. A total of 147 cases (73 cases in the experimental group and 74 cases in the placebo group) finally achieved the main end points.
Through statistical analysis of the experimental results from Example 1, the inventors investigated, in this Example, the response rate of Neuregulin in improving LVESVI (by more than 13 mL/m^2) in an enriched population. The enriched population refers to patients with a baseline LVESVI ≥135 mL/m^2, accounting for approximately 41% of the total studied population.
Through statistical analysis of the results from Example 1, the inventors investigated, in this Example, the response rate of Neuregulin in improving both LVESVI and LVEDVI (both exceeding 20 mL/m^2) in individual patients of the enriched population.

[1] = 30 days after administration, P<0.05 vs placebo
[2] = baseline LVESVI ≥135 mL/m^2, listed as neuregulin
[3] = enriched population, baseline LVESVI ≥135 mL/m^2
[4] = individual subject, Day 30 vs baseline, FAS

B1: Neuregulin: 61 amino acids constitute EGF-like functional domain of Neuegulin-1β2 isomer, molecular weight 7054 Dal; SEQ ID NO: 1 (protein)
chain: SHLVKCAEKEKTFCVNGGECFMVKDLSNPSRYLCKCPNEFTGDRCQNYVMASFYKAEELYQ
- patients with LVESVI reduction (30-day data, compared with baseline): 63%
- ΔLVESVI (30 D): −5.62 ± 18.99 ml/m^2
- ΔLVESVI (90 D, P=0.0128): −5.23 ± 17.12 ml/m^2
- improvement rate: LVESVI decreased by ≥5 ml/m^2 compared with the baseline (30 days after administration): 45.2%
- improvement rate: LVESVI decreased by ≥10 ml/m^2 compared with the baseline (30 days after administration): 34.2%
- improvement rate: LVESVI decreased by ≥15 ml/m^2 compared with the baseline (30 days after administration): 23.3%
- improvement rate: LVESVI decreased by ≥30 ml/m^2 compared with the baseline (30 days after administration): 8.2%
- improvement rate: LVESVI decreased by ≥35 ml/m^2 compared with the baseline (30 days after administration): 5.5%
- improvement rate: LVESVI decreased by ≥40 ml/m^2 compared with the baseline (30 days after administration): 2.7%
- improvement rate: LVESVI decreased by ≥20 ml/m^2 compared with the baseline [1]: 17.8%
- improvement rate: LVESVI decreased by ≥25 ml/m^2 compared with the baseline [1]: 15.1%
- Increase in LVEDVI at Day 30 compared with the baseline was more than or equal to 5 ml/m^2, n/N(%) (Day 30, FAS): 19/73(26.0) %
- Increase in LVEDVI at Day 30 compared with the baseline was more than or equal to 10 ml/m^2, n/N(%) (Day 30, FAS): 14/73(19.2) %
- Increase in LVEDVI at Day 30 compared with the baseline was more than or equal to 15 ml/m^2, n/N(%) (Day 30, FAS): 9/73(12.3) %
- Increase in LVEDVI at Day 30 compared with the baseline was more than or equal to 20 ml/m^2, n/N(%) (Day 30, FAS): 3/73(4.1) %
- Increase in LVEDVI at Day 30 compared with the baseline was more than or equal to 25 ml/m^2, n/N(%) (Day 30, FAS): 3/73(4.1) %
- Increase in LVEDVI at Day 30 compared with the baseline was more than or equal to 30 ml/m^2, n/N(%) (Day 30, FAS): 1/73(1.4) %
- Increase in LVESVI at Day 30 compared with the baseline was more than or equal to 5 ml/m^2, n/N(%) (Day 30, FAS): 15/73(20.5) %
- Increase in LVESVI at Day 30 compared with the baseline was more than or equal to 10 ml/m^2, n/N(%) (Day 30, FAS): 10/73(13.7) %
- Increase in LVESVI at Day 30 compared with the baseline was more than or equal to 15 ml/m^2, n/N(%) (Day 30, FAS): 5/73(6.8) %
- Increase in LVESVI at Day 30 compared with the baseline was more than or equal to 20 ml/m^2, n/N(%) (Day 30, FAS): 3/73(4.1) %
- Increase in LVESVI at Day 30 compared with the baseline was more than or equal to 25 ml/m^2, n/N(%) (Day 30, FAS): 1/73(1.4) %
- Increase in LVESVI at Day 30 compared with the baseline was more than or equal to 30 ml/m^2, n/N(%) (Day 30, FAS): 1/73(1.4) %
- Reduction in LVEDVI at Day 30 compared with the baseline was more than or equal to 5 ml/m^2, n/N(%) (Day 30, FAS): 43.8% and 32/73(43.8) %
- Reduction in LVEDVI at Day 30 compared with the baseline was more than or equal to 10 ml/m^2, n/N(%) (Day 30, FAS): 30.1% and 22/73(30.1) %
- Reduction in LVEDVI at Day 30 compared with the baseline was more than or equal to 15 ml/m^2, n/N(%) (Day 30, FAS): 21.9% and 16/73(21.9) %
- Reduction in LVEDVI at Day 30 compared with the baseline was more than or equal to 20 ml/m^2, n/N(%) (Day 30, FAS): 17.8% and 13/73(17.8) %
- Reduction in LVEDVI at Day 30 compared with the baseline was more than or equal to 25 ml/m^2, n/N(%) (Day 30, FAS): 16.4% and 12/73(16.4) %
- Reduction in LVEDVI at Day 30 compared with the baseline was more than or equal to 35 ml/m^2, n/N(%) (Day 30, FAS): 6.8% and 5/73(6.8) %
- Reduction in LVEDVI at Day 30 compared with the baseline was more than or equal to 40 ml/m^2, n/N(%) (Day 30, FAS): 5.5% and 4/73(5.5) %
- Reduction in LVEDVI at Day 30 compared with the baseline was more than or equal to 30 ml/m^2, n/N(%) (Day 30, FAS, P value of 0.046 vs placebo): 13.7% and 10/73(13.7) %
- LVESVI improved compared with that before administration (Day 30 after administration, P=0.0137): 5.62 ml/m^2
- average improvement in LVEDVI from baseline, enriched population compared with overall (general) population (baseline LVESVI ≥135 mL/m^2): greater average improvement in LVEDVI
- average improvement in LVESVI from baseline, enriched population compared with overall (general) population (baseline LVESVI ≥135 mL/m^2): greater average improvement in LVESVI
- average improvement in LVEDVI from baseline, enriched population compared with overall (general) population [2]: better average improvements in LVESVI or LVEDVI than the neuregulin treatment group in the general population
- average improvement in LVESVI from baseline, enriched population compared with overall (general) population [2]: better average improvements in LVESVI or LVEDVI than the neuregulin treatment group in the general population
- LVESVI and LVEDVI: Simultaneous increase by more than or equal to 5 ml/m^2, n/N(%) (Day 30 vs baseline, FAS): 13/73(17.8) %
- LVESVI and LVEDVI: Simultaneous increase by more than or equal to 10 ml/m^2, n/N(%) (Day 30 vs baseline, FAS): 9/73(12.3) %
- LVESVI and LVEDVI: Simultaneous increase by more than or equal to 15 ml/m^2, n/N(%) (Day 30 vs baseline, FAS): 3/73(4.1) %
- LVESVI and LVEDVI: Simultaneous increase by more than or equal to 20 ml/m^2, n/N(%) (Day 30 vs baseline, FAS): 2/73(2.7) %
- LVESVI and LVEDVI: Simultaneous increase by more than or equal to 25 ml/m^2, n/N(%) (Day 30 vs baseline, FAS): 1/73(1.4) %
- LVESVI and LVEDVI: Simultaneous increase by more than or equal to 30 ml/m^2, n/N(%) (Day 30 vs baseline, FAS): 1/73(1.4) %
- persistence of the LVESVI improvement effect (after 10-day administration, P=0.0128 at Day 90): could be maintained until Day 90 after the administration
- response rate for a substantial improvement in LVESVI (a reduction of more than 13 mL/m^2) [3]: 50%
- response rate for both LVESVI and LVEDVI decreased by more than 20 mL/m^2, compared with placebo group [3]: significantly higher than that in the placebo group
- response rate for both LVESVI and LVEDVI reduced by ≥20 mL/m^2, enriched population compared with overall (general) population [3]: higher than that in the overall population
- response rate for simultaneous improvements in both LVESVI and LVEDVI greater than 20 mL/m^2 (enriched population, baseline LVESVI ≥135 mL/m^2, individual subjects): 26.5%
- response rate for both LVESVI and LVEDVI reduced by ≥20 mL/m^2, enriched population compared with overall (general) population (enriched population, baseline LVESVI ≥135 mL/m^2, listed as neuregulin): better response rate
- LVESVI and LVEDVI: Simultaneous reduction by more than or equal to 5 ml/m^2, n/N(%) [4]: 37.0% and 27/73(37.0) %
- LVESVI and LVEDVI: Simultaneous reduction by more than or equal to 10 ml/m^2, n/N(%) [4]: 23.3% and 17/73(23.3) %
- LVESVI and LVEDVI: Simultaneous reduction by more than or equal to 15 ml/m^2, n/N(%) [4]: 19.2% and 14/73(19.2) %
- LVESVI and LVEDVI: Simultaneous reduction by more than or equal to 25 ml/m^2, n/N(%) [4]: 12.3% and 9/73(12.3) %
- LVESVI and LVEDVI: Simultaneous reduction by more than or equal to 30 ml/m^2, n/N(%) [4]: 6.8% and 5/73(6.8) %
- LVESVI and LVEDVI: Simultaneous reduction by more than or equal to 35 ml/m^2, n/N(%) [4]: 4.1% and 3/73(4.1) %
- LVESVI and LVEDVI: Simultaneous reduction by more than or equal to 40 ml/m^2, n/N(%) [4]: 1.4% and 1/73(1.4) %
- LVESVI and LVEDVI: Simultaneous reduction by more than or equal to 20 ml/m^2, n/N(%) (individual subject, Day 30 vs baseline, FAS, p-value 0.0048 vs placebo): 16.4% and 12/73(16.4) %

Reference: patent US20260103496A1, “NEUREGULIN AND USE THEREOF” (ZENSUN (SHANGHAI) SCIENCE & TECHNOLOGY, CO., LTD., priority 2022, published 2026)
